Source: PMC6194676, “Blood-brain barrier-associated pericytes internalize and clear aggregated amyloid-β42 by LRP1-dependent apolipoprotein E isoform-specific mechanism” (Molecular Neurodegeneration, 2018)

How the values were obtained:
CD13+ pericytes = assay: Cy3-Aβ42 uptake by pericytes on freshly isolated mouse brain cortical slices; assay type: cell-based; conditions: Cy3-Aβ42 1 μM
Experimental: Brain slices were prepared from 2-month old C57BL6 mice or Lrp^lox/lox;Cspg4-Cre mice. Following the urethane anesthesia, brains were quickly removed from the cranial cavity and sectioned with McIlwain tissue chopper (Ted Pella, Inc., Redding, CA, USA) into 200 μm thick slices containing cortex and hippocampus, as previously described. Slices were recovered for 30 min in a submersion chamber filled with the per-warmed (at 37 °C) artificial cerebrospinal fluid (aCSF; 126 mM NaCl, 2.5 mM KCl, 1.25 mM Na2PO4, 26 mM NaHCO3, 1 mM MgCl2, 2 mM CaCl2, 0.5 mM ascorbic acid, 2 mM sodium pyrurate, and 10 mM glucose, saturated with 95% O2 and 5% CO2). […] (anti-LRP1 N20, 50 μg/ml; Santa Cruz Biotech., Santa Cruz, CA, USA) for 20 min at 37 °C. At the end of the experiment, brain slices were washed with phosphate buffer saline (PBS) and fixed with 4% PFA for 30 min. The same immunostaining procedure as for human brain tissue without antigen retrieval was performed on mouse brain slices. Primary antibodies included goat anti-mouse aminopeptidase N (CD13) (1:100, R&D Systems), and goat anti-mouse PDGFRβ (1:100, R&D Systems). Secondary antibodies were: Alexa 488-conjugated donkey anti-goat (1:200, Invitrogen). Images were obtained with Zeiss 510 confocal microscopy (Carl Zeiss MicroImaging Inc.) with lasers and band-pass filter settings as described above. […]

[1] = system: primary mouse brain pericytes; assay: Clearance of aggregated Cy3-Aβ42 from multi-spot glass slides by primary mouse brain pericytes; assay type: cell-based; conditions: 5 days of culture, 1 μg Cy3-Aβ42 per spot, 5,000 cells per spot; anti-LRP1 50 μg/ml, RAP 500 nM, or si.Lrp1; compared to cell-free control; N = 4 independent cultures, mean
Text: Brain capillaries were isolated from mouse cortices pooled from 3 to 4 mouse brains for each biological replicate. In experiments in Figs. 4 and 5, we used 3–4 independent biological replicates (cultures), as indicated in the legends to these respective figures. Capillaries were isolated as we have described previously. In brief, mouse cortices were macroscopically dissected, and all visible white matter was discarded in ice-cold PBS containing 2% fetal bovine serum (FBS). The brain was homogenized in PBS containing 2% FBS and centrifuged at 6,000 g for 15 min after addition of Dextran (70 kDa, Sigma). The capillary pellet was collected and sequentially filtered through a 45 μm cell strainer (BD Falcon). […]
The multi-spot glass slides (Thermo Scientific, 9991090, Waltham, MA, USA) were coated with Cy3- Aβ42 [29, 51] at 1 μg per spot without cells or with brain capillary pericytes treated with non-immune IgG (NI-IgG) or LRP1-specific blocking antibody (anti-LRP1; 50 μg/ml) or) or apoE-specific blocking antibody (anti-apoE, HJ6.3, 50 μg/ml), scrambled siRNA (si.Control) or LRP1 siRNA (si.Lrp1) (Dharmacon, E-040764-00-0010) or apoE siRNA (si.Apoe) (Dharmacon, E-040885-00-0005), and 500 nM receptor-associated protein (RAP) (EMD Bioscience), lipidated apoE3 (40 nM) or apoE4 (40 nM). […] The Cy3-Aβ42 relative intensity was analyzed with the NIH Image J software. […]

Row | Molecule | Uptake of Cy3-Aβ42 by pericytes, time course (CD13+ pericytes; 30 min vs 2 h) | Cy3-Aβ42+ area occupying CD13+ pericyte profiles (CD13+ pericytes; 2 h, in the presence of the LRP1 inhibitor (anti-LRP1 50 μg/ml), confocal microscopy, N = 4 independent cultures, mean) [%] | Cy3-Aβ42 cleared by pericytes [1] [%]
1 | Cy3-Aβ42: Human Cy3-labelled amyloid-β42; preparation contained monomers, dimers, trimers, tetramers and small molecular weight oligomers [reference compound] | rapid and time-dependent |  | 
2 | RAP: Receptor associated protein, an LRP1 antagonist which inhibits ligand binding to LRP1 (protein, UniProt P30533 35-357, looked up) Alpha-2-macroglobulin …: YSREKNQPKPSPKRESGEEFRMEKLNQLWEKAQRLHLPPVRLAELHADLKIQERDELAWKKLKLDGLDEDGEKEARLIRNLNVILAKYGLDGKKDARQVTSNSLSGTQEDGLDDPRLEKLWHKAKTSGKFSGEELDKLWREFLHHKEKVHEYNVLLETLSRTEEIHENVISPSDLSDIKGSVLHSRHTELKEKLRSINQGLDRLRRVSHQGYSTEAEFEEPRVIDLWDLAQSANLTDKELEAFREELKHFEAKIEKHNHYQKQLEIAHEKLRHAESVGDGERVSRSREKHALLEGRTKELGYTVKKHLQDLSGRISRARHNEL |  | 21.7 | 27.3
